In paper PMC4339652, “Antibacterial toxin colicin N and phage protein G3p compete with TolB for a binding site on TolA” (Microbiology, 2015):
“And” between values parts separate entries of the source, which are not always exact repeats. Equal values may be shown once.

B1: TolAIII (TolA domain III, residues 296-421), wild type (domain or fragment, E. coli, UniProt P19934 296-421, looked up)
chain: DIFGELSSGKNAPKTGGGAKGNNASPAGSGNTKNNGASGADINNYAGQIKSAIESKFYDASSYAGKTCTLRIKLAPDGMLLDIKPEGGDPALCQAALAAAKLAKIPKPPSQAVYEVFKNAPLDFKP
notes: TolA, E. coli, 421-residue protein; C-terminal domain III, residues 296-421, soluble truncate lacking TolAI-II; also called TolA_(III296–421); WT TolAIII
B2: Colicin N translocation domain, ColN-T (ColN 1-90) (domain or fragment)
chain: MGSNGADNAHNNAFGGGKNPGIGNTSGAGSNGSASSNRGNSNGWSWSNKPHKNDGFHSDGSYHITFHGDNNSKPKPGGNSGNRGNNGDGA
notes: Colicin N, disordered N-terminal translocation (T) domain, residues 1-90; also called ColN-T_(1–90); T_(1–90)
B3: G3p-N1, N-terminal (N1) domain of gene-3-protein of filamentous bacteriophage M13 (domain or fragment, UniProt P69168 19-104, looked up)
chain: AETVESCLAKPHTENSFTNVWKDDKTLDRYANYEGCLWNATGVVVCTGDETQCYGTWVPIGLAIPENEGGGSEGGGSEGGGSEGGG
notes: Gene-3-protein (G3p, minor coat protein), filamentous bacteriophage M13, N1 domain; also called G3p-sN1

Experiments:
Details in all cases: both partners purified
[1] = target: T1, TolB, wild type (UniProt P0A855 22-430); assay: SPR; TolAIII (645 RU) amine-coupled to CM5; WT TolB or TolB mutants passed over (5 µM in Fig. 4e); 1:1 Langmuir fits and steady-state affinity; HEPES-EP, 25 °C
T1 construct: TolB, 47 kDa two-domain soluble periplasmic protein; also called WT TolB

[2] = target: T2, TolB DGSY-AGAA (UniProt P0A855 22-430, DGSY-AGAA); assay: as above
T2 construct: TolB with DGSY (109-112) changed to AGAA

[3] = target: B1; assay: SPR; TolAIII WT, D418P or K420P amine-coupled to a CM5 chip (~550 RU; 155 RU TolAIII for ColN-T kinetics); concentration series of analyte (ColN-T, G3p-N1 0.2-50 µM; G3p-N1 V44P up to 250 µM); Biacore X-100, 25 °C, HEPES-EP (10 mM HEPES pH 7.4, 150 mM NaCl, 3.4 mM EDTA, 0.05 % P20); blank surface subtracted; kinetic fits and steady-state affinity

| Binder | Kd [1] | koff [1] [s⁻¹] | kon [1] [M⁻¹ s⁻¹] | Kd [2] | koff [2] [s⁻¹] | kon [2] [M⁻¹ s⁻¹] | Kd [3] | koff [3] [s⁻¹] | kon [3] [M⁻¹ s⁻¹] |
| --- | --- | --- | --- | --- | --- | --- | --- | --- | --- |
| B1 | 37 µM and 43.2 µM | 0.3 ± 0.004 | 8270 | 39 µM and 48.3 µM | 0.1 ± 0.002 | 2710 | – | – | – |
| B2 | – | – | – | – | – | – | 1.8 ± 0.2 µM | – | – |
| B3 | – | – | – | – | – | – | 15 µM and 11.9 µM | 0.31 ± 0.002 | 20600 |
